This passage reports fluorescence units (FU) results from US20190227063A1.

For assay [1], the target named is HLA-A*02:01 in complex with PRAME300-309 peptide …, on T2 cells expressing the PresentER ALY minigene (human). The assay is described as follows: flow cytometry histograms, T2 cells expressing PresentER minigenes. On the technique in general: A flow cytometer gives signals particle by particle.
Assay [2] addresses HLA-A*02:01 in complex with WT1 aa126-134 peptide …, on T2 cells expressing the PresentER RMF minigene (human). Briefly: >.

As for “Pr20 TCR mimic (TCRm) monoclonal antibody”, the fluorescence units (FU) in assay [1] was > 1100 FU.

For the substance “ESK1 TCR mimic (TCRm) monoclonal antibody”, the fluorescence units (FU) in assay [2] is 1000 >; in assay [1] it was < 1000 FU.
